Test results from PMC8549523, “Human AdV-20-42-42, a Promising Novel Adenoviral Vector for Gene Therapy and Vaccine Product Development” (Journal of Virology, 2021).

Target: hexon protein of HAdV-20-42-42 (human adenovirus HAdV-20-42-42 (strain …))
Experiment: SPR; affinity and interaction half-life told as data not shown; CD46 immobilised, hexon as analyte
Settings: both partners purified

B1: CD46 (receptor)
chain: CEEPPTFEAMELIGKPKPYYEIGERVDYKCKKGYFYIPPLATHTICDRNHTWLPVSDDACYRETCPYIRDPLNGQAVPANGTYEFGYQMHFICNEGYYLIGEEILYCELKGSVAIWSGKPPICEKVLCTPPPKIKNGKHTFSEVEVFEYLDAVTYSCDPAPGPDPFSLIGESTIYCGDNSVWSRAAPECKVVKCRFPVVENGKQISGFGKKFYYKATVMFECDKGFYLDGSDTIVCDSNSTWDPPVPKCLKVLPPSSTKPPALSHSVSTSSTTKSPASSASGPRPTYKPPVSNYPGYPKPEEGILDSLD
  Kd: 13.5 µM
